2 molecules from article PMC4879557, “HPTLC-aptastaining – Innovative protein detection system for high-performance thin-layer chromatography” can be followed below.

In data set [1] the target is T1, lysozyme (hen (egg white), UniProt P00698 19-147). Kind of data set: HPTLC-aptastaining; no obvious differences to LysApt5; White wine mimicking buffer: 1.5 mM KCl, 14.5 mM K acetate, 3.5 mM Mg acetate, 1.5 mM Ca acetate, 1 mM NaH2PO4, 4 mM KH2PO4, 11.5% (v/v) ethanol, pH 3.1; room temperature; plates blocked with 0.6% Tween 20; aptamer 5 nM (silica gel, cellulose) or 0.5 nM (RP). As to conditions: protein: native; label: 5' ATTO 550.
T1 sequence (P00698 19-147): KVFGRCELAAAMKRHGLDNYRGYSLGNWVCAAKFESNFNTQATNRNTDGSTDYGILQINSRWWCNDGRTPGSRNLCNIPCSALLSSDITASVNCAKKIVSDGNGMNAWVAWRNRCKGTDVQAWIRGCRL

In the next data set the target is T2, beta-lactoglobulin (UniProt P02754 17-178).
T2 sequence: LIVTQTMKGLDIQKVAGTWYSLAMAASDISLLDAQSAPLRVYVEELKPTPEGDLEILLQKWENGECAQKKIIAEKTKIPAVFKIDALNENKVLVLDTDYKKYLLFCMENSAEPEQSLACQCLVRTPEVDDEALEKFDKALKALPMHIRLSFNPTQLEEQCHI
Kind of data set: HPTLC-aptastaining; RP-18W and silica gel plates; White wine mimicking buffer: 1.5 mM KCl, 14.5 mM K acetate, 3.5 mM Mg acetate, 1.5 mM Ca acetate, 1 mM NaH2PO4, 4 mM KH2PO4, 11.5% (v/v) ethanol, pH 3.1; room temperature; plates blocked with 0.6% Tween 20; aptamer 5 nM (silica gel, cellulose) or 0.5 nM (RP). The note with it: protein: native; chain copies: 2; label: 5' ATTO 550.

Data set [2] addresses T1, lysozyme. Described as above. As to conditions: protein: native; label: 5' ATTO 550.

B1: 5'-ATTO 550-LysApt4 (ssDNA)
DNA: CATCCGTCACACCTGCTCTTGTTATTTTTTGTTGATGTAGGTTTGATGATGTATTTCCGGTGTTCGGTCCCGTATC
Regarding B1, the binding result in the data set with lysozyme [1] is given as “binds”.

B2: 5'-ATTO 550-LysApt5 (ssDNA)
DNA: CATCCGTCACACCTGCTCCCTGCTAGAATTTTTCATGATCTTGCTGTATTTCTATTATGGTGTTCGGTCCCGTATC
For the molecule B2, the values for the binding result with beta-lactoglobulin and with lysozyme [2] were “no binding” and “binds”, respectively.
